Test results taken from patent US20030143656A1 (published 2003).

B1: PIFtide (peptide)
peptide: REPRILSEEEQEMFRDFDYIADWC
B2: GST-PDK1 K115A (enzyme, not shown: a dimerising Fc or GST; small tags and cut ends)
chain: MARTTSQLYDAVPIQSSVVLCSCPSPSMVRTQTESSTPPGIPGGSRQGPAMDGTAAEPRPGAGSLQHAQPPPQPRKKRPEDFKFGKILGEGSFSTVVLARELATSREYAIKILEARHIIKENKVPYVTRERDVMSRLDHPFFVKLYFTFQDDEKLYFGLSYAKNGELLKYIRKIGSFDETCTRFYTAEIVSALEYLHGKGIIHRDLKPENILLNEDMHIQITDFGTAKVLSPESKQARANSFVGTAQYVSPELLTEKSACKSSDLWALGCIIYQLVAGLPPFRAGNEYLIFQKIIKLEYDFPEKFFPKARDLVEKLLVLDATKRLGCEEMEGYGPLKAHPFFESVTWENLHQQTPPKLTAYLPAMSEDDEDCYGNYDNLLSQFGCMQVSSSSSSHSLSASDTGLPQRSGSNIEQYIHDLDSNSFELDLQFSEDEKRLLLEKQAGGNPWHQFVENNLILKMGPVDKRKGLFARRRQLLLTEGPHLYYVDPVNKVLKGEIPWSQELRPEAKNFKTFFVHTPNRTYYLMDPSGNAHKWCRKIQEVWRQRYQSHPDAAVQ
B3: GST-PDK1 Q150A (enzyme, human, UniProt O15530 1-556, looked up)
chain: MARTTSQLYDAVPIQSSVVLCSCPSPSMVRTQTESSTPPGIPGGSRQGPAMDGTAAEPRPGAGSLQHAQPPPQPRKKRPEDFKFGKILGEGSFSTVVLARELATSREYAIKILEKRHIIKENKVPYVTRERDVMSRLDHPFFVKLYFTFADDEKLYFGLSYAKNGELLKYIRKIGSFDETCTRFYTAEIVSALEYLHGKGIIHRDLKPENILLNEDMHIQITDFGTAKVLSPESKQARANSFVGTAQYVSPELLTEKSACKSSDLWALGCIIYQLVAGLPPFRAGNEYLIFQKIIKLEYDFPEKFFPKARDLVEKLLVLDATKRLGCEEMEGYGPLKAHPFFESVTWENLHQQTPPKLTAYLPAMSEDDEDCYGNYDNLLSQFGCMQVSSSSSSHSLSASDTGLPQRSGSNIEQYIHDLDSNSFELDLQFSEDEKRLLLEKQAGGNPWHQFVENNLILKMGPVDKRKGLFARRRQLLLTEGPHLYYVDPVNKVLKGEIPWSQELRPEAKNFKTFFVHTPNRTYYLMDPSGNAHKWCRKIQEVWRQRYQSHPDAAVQ
notes: range 1-556; not shown: N-terminal GST tag, pEBG2T vector
B4: GST-PDK1 L155A (enzyme, human, UniProt O15530 1-556, looked up)
chain: MARTTSQLYDAVPIQSSVVLCSCPSPSMVRTQTESSTPPGIPGGSRQGPAMDGTAAEPRPGAGSLQHAQPPPQPRKKRPEDFKFGKILGEGSFSTVVLARELATSREYAIKILEKRHIIKENKVPYVTRERDVMSRLDHPFFVKLYFTFQDDEKAYFGLSYAKNGELLKYIRKIGSFDETCTRFYTAEIVSALEYLHGKGIIHRDLKPENILLNEDMHIQITDFGTAKVLSPESKQARANSFVGTAQYVSPELLTEKSACKSSDLWALGCIIYQLVAGLPPFRAGNEYLIFQKIIKLEYDFPEKFFPKARDLVEKLLVLDATKRLGCEEMEGYGPLKAHPFFESVTWENLHQQTPPKLTAYLPAMSEDDEDCYGNYDNLLSQFGCMQVSSSSSSHSLSASDTGLPQRSGSNIEQYIHDLDSNSFELDLQFSEDEKRLLLEKQAGGNPWHQFVENNLILKMGPVDKRKGLFARRRQLLLTEGPHLYYVDPVNKVLKGEIPWSQELRPEAKNFKTFFVHTPNRTYYLMDPSGNAHKWCRKIQEVWRQRYQSHPDAAVQ
notes: as for B3

Assays:
[1] = biological target: T1, GST-PDK1 (wild type) (human, UniProt O15530 1-556); test: cell-based or functional assay
T1 sequence (looked up): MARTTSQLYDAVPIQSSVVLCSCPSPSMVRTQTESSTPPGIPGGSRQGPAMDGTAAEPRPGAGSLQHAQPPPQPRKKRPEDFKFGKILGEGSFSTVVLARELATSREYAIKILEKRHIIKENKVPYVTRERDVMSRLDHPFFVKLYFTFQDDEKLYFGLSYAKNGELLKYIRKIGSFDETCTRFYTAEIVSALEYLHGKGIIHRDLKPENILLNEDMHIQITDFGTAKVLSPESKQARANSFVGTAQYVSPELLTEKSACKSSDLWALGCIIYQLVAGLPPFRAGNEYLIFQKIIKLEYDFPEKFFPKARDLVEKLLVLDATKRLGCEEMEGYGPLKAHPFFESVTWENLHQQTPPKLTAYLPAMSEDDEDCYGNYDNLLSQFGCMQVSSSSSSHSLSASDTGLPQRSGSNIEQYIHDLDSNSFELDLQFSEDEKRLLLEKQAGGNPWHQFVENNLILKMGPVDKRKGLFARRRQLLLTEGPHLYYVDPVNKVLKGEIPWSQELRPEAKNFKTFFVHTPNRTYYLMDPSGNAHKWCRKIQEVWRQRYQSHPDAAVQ

[2] = biological target: B3; test: cell-based or functional assay
[3] = biological target: B4; test: cell-based or functional assay
[4] = biological target: B2; test: cell-based or functional assay
[5] = biological target: B1; test: method not stated (reference mark lost)
[6] = biological target: B1; test: method not stated (unpublished data)

Binder: B1
- increase of PDK1 activity towards T308tide [1]: ≤ 4 fold
- increase of TM50 (heat inactivation of GST-PDK1) [1]: 8 to 10 °C
- inhibition by 2 µM PIFtide of the activation of S6K1[T412E] by wild type PDK1 [1]: > 20 fold
- inhibition by 2 µM PIFtide of the activation of S6K1-T2[T412E] and SGK1[T422D] by the PDK1 mutant [2]: ~50%
- inhibition by 35 µM PIFtide of the activation of S6K1-T2[T412E] and SGK1[T422D] by the PDK1 mutant [2]: > 95%
- stimulation of the PDK1 mutant towards T308tide by PIF [2]: ~2 fold
- inhibition by 2 µM PIFtide of the activation of S6K1-T2[T412E] and SGK1[T422D] by the PDK1 mutant [3]: ~50%
- inhibition by 35 µM PIFtide of the activation of S6K1-T2[T412E] and SGK1[T422D] by the PDK1 mutant [3]: > 95%
- inhibition by 2 µM PIFtide of the activation of S6K1-T2[T412E] and SGK1[T422D] by the PDK1 mutant [4]: ~50%
- inhibition by 35 µM PIFtide of the activation of S6K1-T2[T412E] and SGK1[T422D] by the PDK1 mutant [4]: > 95%

Binder: REPRILSEEEQEMFRDFAYLADWC [D978A-PIFtide]
- fold decrease in activation of PDK1 towards T308tide, against wild type PIFtide [1]: 8 fold

Binder: B2
- fold decrease in affinity for PIFtide [5]: ~10 fold

Binder: B3
- fold decrease in affinity for PIFtide [5]: ~10 fold

Binder: B4
- fold decrease in affinity for PIFtide [6]: ~10 fold
